# Laboratory results published in paper PMC9207808 (ACS Chemical Biology, 2022).
# Values joined by “and” are separate entries in the source; they are usually repeats but may differ in a detail not shown here. Equal entries are not always repeated. Where two headings read alike, the source gives them in different places. No end group written: not given here.
# T1: Doc (Salmonella Typhimurium)
# T1 chain: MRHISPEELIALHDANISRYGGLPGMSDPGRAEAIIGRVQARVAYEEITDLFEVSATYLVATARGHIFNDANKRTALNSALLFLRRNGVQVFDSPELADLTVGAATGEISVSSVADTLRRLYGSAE
# B1: Phd antitoxin of Salmonella enterica serovar Typhimurium, full-length (PhdSTm) (natural protein)
# chain: MFMRTVNYSEARQNLAEVLESAVTGGPVTITRRGHKSAVIISAEEFERYQTARMDDEFAAIMAVHGNELRELADK
# notes: also called PhdSTm 1-73; full-length Phd antitoxin
# B2: peptide 1 (Phd 52-73, Ac-WMDDEFAAIMAVHGNELRELADK-OH) (peptide)
# peptide: Ac-WMDDEFAAIMAVHGNELRELADK-OH
# notes: tryptophan introduced at the N-terminus for spectrophotometric quantification; not part of Phd; also called wild-type peptide 1; C-terminal Phd peptide; source: synthetic peptide
# Experiments:
# [1] = biological target: FLAG–Phd1-73 (PhdSTm antitoxin, His6 removed by thrombin) (Salmonella typhimurium); test: SEC; HiLoad 16/600 Superdex 75pg, 4 C, Phd SEC buffer (0.025 M K2HPO4, 0.15 M NaCl, 5% glycerol, pH 8.0); mass from the manufacturer's calibration curves; last purification step
# [2] = biological target: Doc1-122–His6 (DocSTm toxin) (Salmonella typhimurium); test: SPR; Biacore S200; Doc-His6 captured on NTA chip; Phd1-73 protein as analyte, multi-cycle kinetics, eight concentrations 25 nM to 0.390625 nM, association 200 s, dissociation 1500 s; 22 C; 10 mM HEPES, 500 mM NaCl, 50 uM EDTA, 0.005% TWEEN 20, pH 8.0; kinetic 1:1 fit with constant RMAX
# [3] = biological target: Doc1-122–His6 (DocSTm toxin) (Salmonella typhimurium); test: as above; remark: listed apart in the source
# [4] = test system: DocH66Y (E. coli P1 Phage); conditions: cited from earlier work
# From the text: (§1) page 23: Table S5. […] Organism Complex Kd (nM) SPR Kd (nM) ITC Reference S. Typhimurium Doc-Phd1-73 0.061 ± 0.019 - This study S. Typhimurium Doc-Phd52-73 (peptide 1) 0.073 ± 0.018 - This study E. coli P1 Phage Doc-Phd1-73 350 - 5 E. coli P1 Phage DocH66Y-Phd1-73 1300 - 5 E. coli P1 Phage Doc-Phd51-73 - 240 5 E. coli P1 Phage DocH66Y-Phd52-73 - 1 6 S23
# Doc (E. coli P1 Phage) = conditions: ref 5 (ESI), read-out: Kd (nM) ITC; cited from earlier work
# From the text: as §1
# [5] = biological target: Doc1-122–His6 (DocSTm toxin) (Salmonella typhimurium); test: SPR; Biacore S200; Doc-His6 captured on a Series S NTA chip (200-400 RU); peptide as analyte, single-cycle kinetics, six concentrations (3-fold dilutions), 30 uL/min; 22 C; 10 mM HEPES, 500 mM NaCl, 50 uM EDTA, 0.005% TWEEN 20, pH 8.0; kinetic 1:1 fit
# [6] = biological target: Doc1-122–His6 (DocSTm toxin) (Salmonella typhimurium); test: as above; remark: listed apart in the source
# [7] = biological target: Doc1-122–His6 (DocSTm toxin) (Salmonella typhimurium); test: as above; remark: listed apart in the source
# [8] = biological target: Doc1-122–His6 (DocSTm toxin) (Salmonella typhimurium); test: as above; remark: listed apart in the source
# [9] = biological target: Doc toxin of Salmonella enterica serovar Typhimurium (DocSTm) (Salmonella enterica serovar Typhimurium); test: SPR; DocSTm immobilised on a Series S NTA chip (150 nM, 200-400 RU); analytes in single-cycle kinetics, typically six concentrations, kinetic 1:1 fit; 22 °C; 10 mM HEPES, 500 mM NaCl, 50 μM EDTA, 0.005% TWEEN 20, pH 8.0
# [10] = biological target: Doc toxin of Salmonella enterica serovar Typhimurium (DocSTm) (Salmonella enterica serovar Typhimurium); test: SPR; DocSTm immobilised on a Series S NTA chip; analytes in multicycle kinetics, kinetic and/or steady-state 1:1 fit (steady-state for peptide 14); 22 °C; 10 mM HEPES, 500 mM NaCl, 50 μM EDTA, 0.005% TWEEN 20, pH 8.0
# Doc = biological target: T1, Doc; test: SPR
# [11] = biological target: T2, Doc toxin of Salmonella enterica serovar Typhimurium (DocSTm) (Salmonella enterica serovar Typhimurium, UniProt A0A1C9CWN5 1-126); test: differential scanning fluorimetry; DocSTm 5 μM with SYPRO Orange, 25 to 95 °C; 50 μM PhdSTm or peptide 1 (Figure 2a); 20 mM K2HPO4, 50 mM (NH4)2SO4, pH 8.0; shift of the melting temperature of DocSTm; conditions: both partners purified
# [12] = biological target: T2, Doc toxin of Salmonella enterica …; test: SPR; DocSTm immobilised on a Series S NTA chip; analytes in multicycle kinetics, kinetic and/or steady-state 1:1 fit (steady-state for peptide 14); 22 °C; 10 mM HEPES, 500 mM NaCl, 50 μM EDTA, 0.005% TWEEN 20, pH 8.0; conditions: both partners purified
# [13] = biological target: T2, Doc toxin of Salmonella enterica …; test: SPR; DocSTm immobilised on a Series S NTA chip (150 nM, 200-400 RU); analytes in single-cycle kinetics, typically six concentrations, kinetic 1:1 fit; 22 °C; 10 mM HEPES, 500 mM NaCl, 50 μM EDTA, 0.005% TWEEN 20, pH 8.0; conditions: both partners purified
molecule,measurement,setting,value
"FLAG–Phd1-73 (PhdSTm antitoxin, His6 removed by thrombin) (natural protein)",stoichiometry N,[1],2
same,koff,[2],2.9e-05 s⁻¹
same,kon,[2],473000 M⁻¹ s⁻¹
same,Kd,[3],0.0507 nM and 0.0505 nM and 0.0883 nM
same,koff,[3],3.02e-05 s⁻¹ and 2.2e-05 s⁻¹ and 3.42e-05 s⁻¹
same,kon,[3],596000 M⁻¹ s⁻¹ and 436000 M⁻¹ s⁻¹ and 387000 M⁻¹ s⁻¹
"Phd1-73 (E. coli P1 Phage): full-length Phd antitoxin from E. coli P1 phage, literature values",Kd,"[4]; ref 5 (ESI), read-out: Kd (nM) SPR",1300 nM
"Phd51-73 (E. coli P1 Phage): Phd residues 51-73 of E. coli P1 phage, literature value (ALDAEFASLFDTLDSTNKELVNR; UniProt Q06253 51-73, looked up, fragment)",Kd,Doc (E. coli P1 Phage),240 nM
"Phd52-73 (E. coli P1 Phage): Phd residues 52-73 of E. coli P1 phage, literature value (LDAEFASLFDTLDSTNKELVNR; UniProt Q06253 52-73, looked up, fragment)",Kd,"[4]; ref 6 (ESI), read-out: Kd (nM) ITC",1 nM
peptide 1 (PhdSTm52-73),koff,[5],9.1e-05 s⁻¹
same,kon,[5],1.25e+06 M⁻¹ s⁻¹
same,kon,[6],1.1e+06 1/(M s) (2×) and 1.6e+06 1/(M s) and 1.3e+06 1/(M s)
peptide 12 (PhdSTm52-73-N65A),Kd,[5],0.145 nM
same,koff,[5],0.000203 s⁻¹
same,kon,[5],1.4e+06 M⁻¹ s⁻¹
same,kon,[7],1.3e+06 1/(M s) (2×) and 1.6e+06 1/(M s) and 1.4e+06 1/(M s)
peptide 19 (PhdSTm52-73-K73A),Kd,[5],0.087 nM
same,koff,[5],0.000126 s⁻¹
same,kon,[5],1.44e+06 M⁻¹ s⁻¹
same,kon,[8],1.08e+06 M⁻¹ s⁻¹ and 2.12e+06 M⁻¹ s⁻¹ and 1.28e+06 M⁻¹ s⁻¹
peptide 22 (Phd 55-71),Kd,[9],0.347 nM
peptide 23 (Phd 56-70),Kd,[9],1.98 nM
Ac-WMDDEFAAIMAVHGNEARELADK [peptide 14 (Phd 52-73 L67A)],Kd,[10],20 nM
EFASLFDTLDSTNKELV [Phd peptide 22 55-71],Kd,Doc,0.347 nM
AALDAEFASLFDTLDSTNKELVNR [Phd peptide 1 neutralization domain],Kd,Doc,0.073 nM
B1,ΔTm of DocSTm (DSF),[11],31.3 ± 0.9 °C
same,half-life of the complex,[12],~7 h
Ac-WMDDEFAAIMAVHGNELRELA-OH [peptide 20 (C-terminally truncated analogue of peptide 1)],fold loss in Kd against peptide 1,[13],~5 fold
B2,ΔTm of DocSTm (DSF),[11],28.8 ± 0.9 °C
same,Kd,[13],0.073 nM
FASLFDTLDSTNKEL [Phd peptide 23 56-70],Kd,Doc,1.98 nM
Ac-WMDDEFAAIMAVAGNELRELADK [peptide 10 (Phd 52-73 H63A)],Kd,[10],20 nM
Ac-EFAAIMAVHGNELRELADK-OH [peptide 21 (N-terminally truncated analogue of peptide 1)],fold loss in Kd against peptide 1,[13],~5 fold
Ac-WMDDEFAAAMAVHGNELRELADK [peptide 7 (Phd 52-73 I59A)],Kd,[10],20 nM
